From patent publication US20150218534A1, “MODIFIED DNA POLYMERASE” (TOYOBO CO., LTD., priority 2012, published 2015)

Experiments:
[1] = test system: 0.7 kbp of human β-globin amplified in PCR with dUTP; test: Degradation with UNG of DNA amplified in the presence of dUTP; assay type: biochemical; conditions: 37° C. for 10 minutes (FIG. 13)
Protocol: It was confirmed whether 0.7 kbp of human β-globin amplified using KOD mutant with reduced uracil sensitivity (N210D/Y7A/P36H) in PCR with dUTP was degraded by being reacted with UNG. For PCR, components included in KOD-Plus-Ver. 2 (produced by Toyobo Co. Ltd.) were used. 50 μl of a reaction solution containing 1× PCR buffer, 1.5 mM MgSO4, dNTPs (dATP, dUTP, dCTP, dGTP) in an amount of 2 mM in which dTTP was replaced by dUTP, primers (SEQ ID NOs: 50 and 51) in an amount of 15 pmol, 10 ng of human genomic DNA (produced by Roche), and 1 U of the enzyme mixed with an antibody was used. PCR was performed using a GeneAmp PCR system 9700 (Applied Biosystems) on the following schedule: preliminary reaction at 94° C. for 2 minutes, followed by 35 cycles, each cycle consisting of 98° C. for 10 seconds, 60° C. for 30 seconds, and 68° C. for 1 minute. The amplification products were diluted with the above-mentioned 1× PCR buffer to 10 ng/μl, 8 μl of the diluted amplification products was mixed with 2 μl of various concentrations of UNG (produced by Roche), and the mixtures were reacted at 37° C. for 10 minutes. After the completion of each individual reaction, each of the mixtures was analyzed using a DNA-1000 kit for MultiNA (produced by Shimadzu Corporation) to confirm the amount of amplification products.

[2] = test system: 1.3 kbp, 2.8 kbp, and 3.6 kbp of human β-globin; test: Amplification of long-chain DNA in PCR using dUTP; assay type: biochemical; conditions: 1.3, 2.8, 3.6 kbp; 100% dUTP (FIGS. 9 and 10)
Protocol: Amplification of 1.3 kbp, 2.8 kbp, and 3.6 kbp of human β-globin in PCR using dUTP was compared. For amplification, each enzyme was used after being mixed with 1 μg of a KOD antibody per U of the enzyme. For PCR, components included in KOD-Plus-Ver. 2 (produced by Toyobo Co. Ltd.) were used. 50 μl of individual reaction solutions containing 1× PCR buffer, 1.5 mM MgSO4, dNTPs (dATP, dUTP, dCTP, dGTP) in an amount of 2 mM in which dTTP was replaced by dUTP, primers in an amount of 15 pmol (SEQ ID NOs: 25 and 26 for amplification of 1.3 kbp; SEQ ID NOs: 26 and 29 for amplification of 2.8 kbp; SEQ ID NOs: 30 and 31 for amplification of 3.6 kbp), 10 ng of human genomic DNA (produced by Roche), and 1 U of each respective enzyme mixed with the antibody were used. PCR was performed using a GeneAmp PCR system 9700 (Applied Biosystems) on the following schedule: preliminary reaction at 94° C. for 2 minutes, followed by 35 cycles, each cycle consisting of 98° C. for 10 seconds, 65° C. for 30 seconds, and 68° C. for about 1 minute per kbp (1 minute and 30 seconds for amplification of 1.3 kbp; 3 minutes for amplification of 2.8 kbp; 4 minutes for amplification of 3.6 kbp). As a control, amplification was also performed using Taq DNA polymerase. Taq DNA polymerase produced by Toyobo Co. Ltd. mixed with Anti-Taq High (produced by Toyobo Co. Ltd.) was used. 50 μl of a reaction solution containing 1× buffer included in Blend Taq, dNTPs (dATP, dUTP, dCTP, dGTP) in an amount of 2 mM in which dTTP was replaced by dUTP, primers in an amount of 10 pmol the same as the above), 10 ng of human genomic DNA (produced by Roche), and 2.5 U of the enzyme mixed with the antibody was used. PCR was performed using a GeneAmp PCR system 9700 (produced by Applied Biosystems) on the following schedule: preliminary reaction at 94° C. for 2 minutes, followed by 35 cycles, each cycle consisting of 94° C. for 30 seconds, 65° C. for 30 seconds, and 68° C. for about 1 minute per kbp (1 minute and 30 seconds for amplification of 1.3 kbp; 3 minutes for amplification of 2.8 kbp; 4 minutes for amplification of 3.6 kbp). After the completion of each individual reaction, 5 μl of each of the resulting reaction solutions was subjected to agarose electrophoresis, followed by ethidium bromide staining, and the amount of amplified DNA fragments was confirmed under ultraviolet irradiation. FIGS. 9 and 10 show the results.

B1: Pfu Y7A/V93K: modified Pfu DNA polymerase with Y7A and V93K (protein, UniProt P61875 1-775, looked up, variant Y7A V93K)
DNA polymerase: MILDVDAITEEGKPVIRLFKKENGKFKIEHDRTFRPYIYALLRDDSKIEEVKKITGERHGKIVRIVDVEKVEKKFLGKPITVWKLYLEHPQDKPTIREKVREHPAVVDIFEYDIPFAKRYLIDKGLIPMEGEEELKILAFDIETLYHEGEEFGKGPIIMISYADENEAKVITWKNIDLPYVEVVSSEREMIKRFLRIIREKDPDIIVTYNGDSFDFPYLAKRAEKLGIKLTIGRDGSEPKMQRIGDMTAVEVKGRIHFDLYHVITRTINLPTYTLEAVYEAIFGKPKEKVYADEIAKAWESGENLERVAKYSMEDAKATYELGKEFLPMEIQLSRLVGQPLWDVSRSSTGNLVEWFLLRKAYERNEVAPNKPSEEEYQRRLRESYTGGFVKEPEKGLWENIVYLDFRALYPSIIITHNVSPDTLNLEGCKNYDIAPQVGHKFCKDIPGFIPSLLGHLLEERQKIKTKMKETQDPIEKILLDYRQKAIKLLANSFYGYYGYAKARWYCKECAESVTAWGRKYIELVWKELEEKFGFKVLYIDTDGLYATIPGGESEEIKKKALEFVKYINSKLPGLLELEYEGFYKRGFFVTKKRYAVIDEEGKVITRGLEIVRRDWSEIAKETQARVLETILKHGDVEEAVRIVKEVIQKLANYEIPPEKLAIYEQITRPLHEYKAIGPHVAVAKKLAAKGVKIKPGMVIGYIVLRGDGPISNRAILAEEYDPKKHKYDAEYYIENQVLPAVLRILEGFGYRKEDLRYQKTRQVGLTSWLNIKKS
[1]
  degradation with UNG of DNA amplified with the polymerase in the presence of dUTP: the DNA was degraded with UNG
[2]
  amount of amplification of long-chain DNA with dUTP: provided larger amounts of amplification
